Assay results reported in the supplement of paper PMC9170038.

Test system: MS2 coat protein
Test: apparent KD of MS2 coat protein; designed switch direction (-1 OFF switch, 1 ON switch): -1; higher = weaker reporter binding
Outline: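 Stalled E. coli RNA polymerase transcribed designed RNA switches on Illumina chips, which were then titrated with SNAP-549-labelled MS2 coat protein, doubling from 0.7 or 1.5 nM to 3 µM. Steps lasted from 0.8–1.5 h at the lowest concentration to 10–20 min at the highest. The apparent KD is each design's median over clusters of curve-fitted normalised fluorescence.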

[1] = Eterna round: R95, input ligand: FMN 200 uM
[2] = Eterna round: R95, input ligand: microRNA oligo, concentration not stated
[3] = Eterna round: R95, input ligand: none
[4] = input ligand: microRNA oligo, concentration not stated

Sequence	apparent KD of MS2 coat protein [1] [nM]	apparent KD of MS2 coat protein [2] [nM]	apparent KD of MS2 coat protein [3] [nM]	apparent KD of MS2 coat protein [4] [nM]	apparent KD of MS2 coat protein (input ligand: FMN 200 uM) [nM]	apparent KD of MS2 coat protein (input ligand: none) [nM]
AGUGCUGACACGUUGGUGUUAGUACCAUAAGCUUGUGAUACAUGAGGAUCACCCAUGUCCUCAUAAGCUCGUCUUAU [salish99_TOv2_r2_097] (puzzle: Sensor v3, turn-off variant 2)	28.6	669	26.8			
AGAAAGGUAGGAUAUACGAAAAAAAAGGGUAGAAAAAAAACACAUGAGGAUCACCCAUGUAGAAGGACCAAAGA [Mat - Exclusion 2 - Tesla mod - D31] (Eterna round: R96, puzzle: Exclusion 2)				27.6		
AGAUUACGAGGAUAUCGAGUUUAGUACAUGAGGAUCACCCAUGUUAUCCAGGUCUCGUUUCGAGAAGGCGUGAUUC [LRO-Ex5-08] (puzzle: Exclusion 5)		200				
GUGUAACUACACGGGCUCAACAUGAGGAUCACCCAUGUCAUACACGCAAGCUUUUUGCUUGUCUUAUCUGUCCGUGA [Raenzama] (puzzle: Sensor v3, turn-off variant 1)	12.1	13.5	10.4			
AAAUUCUGAGGAUAUCGAUGUUUGUACAUGAGGAUCACCCAUGUCCUUUUUAUUUUUUCUCGAGAAGGCAGUGUAU [JR_E5_Sub100] (Eterna round: R96, puzzle: Exclusion 5)				32	48.1	40.7
GAUCGUUUAGAGGAUAUCAUGCUAAACAUUACAUGAGAAGGCUAGACAUGAGGAUCACCCAUGUAUGCUCGUGA [Exclusion 6 - 9:a] (puzzle: Exclusion 6)	20.8	14	14.8			
UGGGUCCAAGGAUAUACAUGAGGAUCACCCAUGUGAGAUUCGAUGCUGUGCCAAUUGUGUAGAAGGUGGCCACC [Eternabot (L2) Solution 32] (Eterna round: R97, puzzle: Exclusion 3)					45.3	44.1
GCACGGAGUGUAGGAUAUCUGUGCGAUUAGCUCAGAGAAGGACACAUGAGGAUCACCCAUGUGUUCCUCGGAAACGAACCGUGC [Eli exng1 - 051] (Eterna round: R96, puzzle: Exclusion NG 1)				10.9	32.2	14
CUAUUACGAGGAUAUGAUUUAAAUAACAUGAGGAUCACCCAUGUUUUUACGUUAUUUUGUUUAGAAGGCGUAUUGU [JR_E5_Sub027] (puzzle: Exclusion 5)		55.5				
CGGAUGUAAGGAUAUUAGUAGUAGUCAGAAUAGACUAUUACUGAGAAGGUACAUGAGGAUCACCCAUGUUUCCG [Eli x4 4.18] (Eterna round: R97, puzzle: Exclusion 4)					27.5	16.8
AUUUAAUUUAGCGAGAUCACAUGAGGAUCACCCAUGUAUAUAUAGGAUAUCAGCUCGUUUAGAGCUGAGAAGGAUAUAUACCGC [ExNG3/7-A2] (Eterna round: R96, puzzle: Exclusion NG 3)				74		
AGAGUACAUGAGGAUCACCCAUGUCAGGAUAUGCAGAAGAAGAAGAAGAGAAGAGAGAGCAGAAGGGACAAGAG [Ex 1 M2] (puzzle: Exclusion 1)	41.1	26.2	29.4			
AACGUGUAAGGAUAUCUGCUUAUGCUCAGCGAUACGCUGAUAGAGAAGGUACAUGAGGAUCACCCAUGUUCCAA [EX4 A.17] (Eterna round: R97, puzzle: Exclusion 4)					20.4	17.5
UUUGGUUUGCGAGGAUAUGCUUUUAGUAAGUUAGCAGAAGGCGCGUUACAUAGAACCUCUUGUUACAUGAGGAUCACCCAUGUU [JR_ExcNG1_Sub037] (Eterna round: R96, puzzle: Exclusion NG 1)				77.3		
UUUCAUCAUGUAGGAUAUGCGUGGCGAAGCUAUGCAGAAGGACAUGAGGAUCACCCAUGUUCUAGCGUCUGCGUACAGAUGCUA [JL ENG1 1.35] (Eterna round: R96, puzzle: Exclusion NG 1)				45.1	226	52.4
